Experimental data published in article PMC9635297 (Molecular Biology of the Cell, 2022).

Target: the molecule itself
Assay: SEC

B1: 6xHis-Cdc3 (natural protein)
chain: MSLKEEQVSIKQDPEQEERQHDQFNDVQIKQESQDHDGVDSQYTNGTQNDDSERFEAAESDVKVEPGLGMGITSSQSEKGQVLPDQPEIKFIRRQINGYVGFANLPKQWHRRSIKNGFSFNLLCVGPDGIGKTTLMKTLFNNDDIEANLVKDYEEELANDQEEEEGQGEGHENQSQEQRHKVKIKSYESVIEENGVKLNLNVIDTEGFGDFLNNDQKSWDPIIKEIDSRFDQYLDAENKINRHSINDKRIHACLYFIEPTGHYLKPLDLKFMQSVYEKCNLIPVIAKSDILTDEEILSFKKTIMNQLIQSNIELFKPPIYSNDDAENSHLSERLFSSLPYAVIGSNDIVENYSGNQVRGRSYPWGVIEVDNDNHSDFNLLKNLLIKQFMEELKERTSKILYENYRSSKLAKLGIKQDNSVFKEFDPISKQQEEKTLHEAKLAKLEIEMKTVFQQKVSEKEKKLQKSETELFARHKEMKEKLTKQLKALEDKKKQLELSINSASPNVNHSPVPTKKKGFLR
stoichiometry N: 2
